In IntAct's records for PubMed 31515488:

B1: Phospholipid scramblase 4 (Homo sapiens), Q9NRQ2 (parent)
chain: MSGVVPTAPEQPAGEMENQTKPPDPRPDAPPEYNSHFLPGPPGTAVPPPTGYPGGLPMGYYSPQQPSTFPLYQPVGGIHPVRYQPGKYPMPNQSVPITWMPGPTPMANCPPGLEYLVQLDNIHVLQHFEPLEMMTCFETNNRYDIKNNSDQMVYIVTEDTDDFTRNAYRTLRPFVLRVTDCMGREIMTMQRPFRCTCCCFCCPSARQELEVQCPPGVTIGFVAEHWNLCRAVYSIQNEKKENVMRVRGPCSTYGCGSDSVFEVKSLDGISNIGSIIRKWNGLLSAMADADHFDIHFPLDLDVKMKAMIFGACFLIDFMYFERSPPQRSR
B2: Embryonal Fyn-associated substrate (Homo sapiens), O43281 (parent)
chain: MAIATSTQLARALYDNTAESPQELSFRRGDVLRVLQREGAGGLDGWCLCSLHGQQGIVPANRVKLLPAGPAPKPSLSPASPAQPGSPYPAPDHSNEDQEVYVVPPPARPCPTSGPPAGPCPPSPDLIYKIPRASGTQLAAPRDALEVYDVPPTALRVPSSGPYDCPASFSHPLTRVAPQPPGEDDAPYDVPLTPKPPAELEPDLEWEGGREPGPPIYAAPSNLKRASALLNLYEAPEELLADGEGGGTDEGIYDVPLLGPEAPPSPEPPGALASHDQDTLAQLLARSPPPPHRPRLPSAESLSRRPLPALPVPEAPSPSPVPSPAPGRKGSIQDRPLPPPPPRLPGYGGPKVEGDPEGREMEDDPAGHHNEYEGIPMAEEYDYVHLKGMDKAQGSRPPDQACTGDPELPERGMPAPQEALSPGEPLVVSTGDLQLLYFYAGQCQSHYSALQAAVAALMSSTQANQPPRLFVPHSKRVVVAAHRLVFVGDTLGRLAASAPLRAQVRAAGTALGQALRATVLAVKGAALGYPSSPAIQEMVQCVTELAGQALQFTTLLTSLAP
B3: U3 small nucleolar RNA-associated protein 14 homolog C (Homo sapiens), Q5TAP6 (parent)
chain: MNVNQVAENLALSHQEELVDLPKNYPLSENEDEGDSDGERKHQKLLEAIISLDGKNRRKLAERSEASLKVSEFSVSSEGSGEKLGLADLLEPVKTSSSLATVKKQLNRVKSKKVVELPLNKEKIEQIHREVAFSKTSQVLSKWDPIILKNQQAEQLVFPLGKEQPAIAPIEHALSGWKARTPLEQEIFNLLHKNKQPVTDPLLTPMEKASLQAMSLEEAKMHRAELQRARALQSYYEAKARKEKKIKSKKYHKVVKKGKAKKALKEFEQLQKVNPTVALEEMEKIENARMMERMSLKHQNSGKWAKSKAIMAKYDLEARQAMQEQLAKNKELTQKLQVASESEEEEGGTEVEELLVPHVANEVQMNVDGPNPWMFRSCTSDTKEAATQEDPEQVPELAAHEVSASEAEERPVAEEEILLREFEERQSLRKRSELNQDAEPASSQETKDSSSQEVLSELRALSQKLKEKHQSRKQKASSEGTVPQVQREEPAPEEAEPLLLQRSERVQTLEELEELGKEDCFQNKELPRPVLEGQQSERTPNNRPDAPKEKKEKEQLINLQNFLTTQSPSVRSLAVPTIIEELEDEEERDQRQMIKEAFAGDDVIRDFLKEKREAVEASKPKDVDLTLPGWGEWGGVGLKPSAKKRRQFLIKAPEGPPRKDKNLPNVIISEKRNIHAAAHQVQVLPYPFTHHRQFERTIQTPIGSTWNTQRAFQKLTTPKVVTKPGHIIKPIKAEDVGYQSSSRSDLPVIQRNPKRITTRHNKEEKL
partner: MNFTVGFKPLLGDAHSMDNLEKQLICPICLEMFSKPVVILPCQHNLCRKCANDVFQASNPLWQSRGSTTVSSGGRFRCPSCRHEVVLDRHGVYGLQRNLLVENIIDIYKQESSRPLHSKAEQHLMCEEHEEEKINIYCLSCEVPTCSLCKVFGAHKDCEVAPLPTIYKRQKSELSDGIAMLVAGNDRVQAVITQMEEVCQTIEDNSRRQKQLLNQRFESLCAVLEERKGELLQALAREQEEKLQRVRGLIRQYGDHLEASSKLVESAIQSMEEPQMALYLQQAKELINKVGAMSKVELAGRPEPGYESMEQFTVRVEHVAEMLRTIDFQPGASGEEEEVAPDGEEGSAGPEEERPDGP
B4: Sulfotransferase 1A1 (Homo sapiens), P50225 (parent)
chain: MELIQDTSRPPLEYVKGVPLIKYFAEALGPLQSFQARPDDLLISTYPKSGTTWVSQILDMIYQGGDLEKCHRAPIFMRVPFLEFKAPGIPSGMETLKDTPAPRLLKTHLPLALLPQTLLDQKVKVVYVARNAKDVAVSYYHFYHMAKVHPEPGTWDSFLEKFMVGEVSYGSWYQHVQEWWELSRTHPVLYLFYEDMKENPKREIQKILEFVGRSLPEETVDFVVQHTSFKEMKKNPMTNYTTVPQEFMDHSISPFMRKGMAGDWKTTFTVAQNERFDADYAEKMAGCSLSFRSEL
partner: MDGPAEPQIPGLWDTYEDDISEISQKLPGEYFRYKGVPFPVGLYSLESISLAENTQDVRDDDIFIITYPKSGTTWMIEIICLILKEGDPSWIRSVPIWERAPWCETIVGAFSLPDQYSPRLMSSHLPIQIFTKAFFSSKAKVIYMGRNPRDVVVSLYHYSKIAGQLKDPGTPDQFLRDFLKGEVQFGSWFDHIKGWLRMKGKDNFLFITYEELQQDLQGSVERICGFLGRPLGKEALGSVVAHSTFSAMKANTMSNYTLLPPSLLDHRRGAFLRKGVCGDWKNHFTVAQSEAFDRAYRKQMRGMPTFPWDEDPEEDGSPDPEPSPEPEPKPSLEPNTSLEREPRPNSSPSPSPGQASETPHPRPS
B5: Notch homolog 2 N-terminal-like protein A (Homo sapiens), Q7Z3S9 (parent)
chain: MCVTYHNGTGYCKCPEGFLGEYCQHRDPCEKNRCQNGGTCVAQAMLGKATCRCASGFTGEDCQYSTSHPCFVSRPCLNGGTCHMLSRDTYECTCQVGFTGKECQWTDACLSHPCANGSTCTTVANQFSCKCLTGFTGQKCETDVNECDIPGHCQHGGTCLNLPGSYQCQCLQGFTGQYCDSLYVPCAPSPCVNGGTCRQTGDFTFECNCLPETVRRGTELWERDREVWNGKEHDEN
partner: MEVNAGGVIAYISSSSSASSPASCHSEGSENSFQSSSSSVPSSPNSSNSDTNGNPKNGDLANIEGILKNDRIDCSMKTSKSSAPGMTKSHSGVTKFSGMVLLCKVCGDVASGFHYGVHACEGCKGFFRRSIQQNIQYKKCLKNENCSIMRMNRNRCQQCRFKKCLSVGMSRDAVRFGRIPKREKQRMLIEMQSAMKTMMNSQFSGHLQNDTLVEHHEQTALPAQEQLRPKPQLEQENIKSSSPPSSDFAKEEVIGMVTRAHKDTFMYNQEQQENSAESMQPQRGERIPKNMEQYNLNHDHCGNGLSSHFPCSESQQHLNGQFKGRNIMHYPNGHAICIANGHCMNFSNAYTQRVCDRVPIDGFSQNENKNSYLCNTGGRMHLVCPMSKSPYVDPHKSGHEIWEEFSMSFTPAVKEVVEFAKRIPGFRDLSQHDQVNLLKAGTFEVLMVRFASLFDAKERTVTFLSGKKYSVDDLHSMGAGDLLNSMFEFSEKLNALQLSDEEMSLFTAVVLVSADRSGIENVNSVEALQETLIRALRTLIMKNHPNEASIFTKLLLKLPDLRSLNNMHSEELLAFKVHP
B6: LHFPL tetraspan subfamily member 5 protein (Homo sapiens), Q8TAF8 (parent)
chain: MVKLLPAQEAAKIYHTNYVRNSRAVGVMWGTLTICFSVLVMALFIQPYWIGDSVNTPQAGYFGLFSYCVGNVLSSELICKGGPLDFSSIPSRAFKTAMFFVALGMFLIIGSIICFSLFFICNTATVYKICAWMQLAAATGLMIGCLVYPDGWDSSEVRRMCGEQTGKYTLGHCTIRWAFMLAILSIGDALILSFLAFVLGYRQDKLLPDDYKADGTEEV
partner: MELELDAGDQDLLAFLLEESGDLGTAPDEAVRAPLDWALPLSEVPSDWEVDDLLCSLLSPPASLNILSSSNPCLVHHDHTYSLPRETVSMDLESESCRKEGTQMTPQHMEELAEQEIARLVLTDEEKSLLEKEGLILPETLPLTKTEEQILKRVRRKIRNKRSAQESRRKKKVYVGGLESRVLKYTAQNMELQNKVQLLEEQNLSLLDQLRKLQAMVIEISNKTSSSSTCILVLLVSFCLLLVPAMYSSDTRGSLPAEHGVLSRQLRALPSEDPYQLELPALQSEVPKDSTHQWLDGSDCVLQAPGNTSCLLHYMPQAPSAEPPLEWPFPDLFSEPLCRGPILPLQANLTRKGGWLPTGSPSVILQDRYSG

Variants of: B1
Details: with pls1_human PLSCR1, O15162
Sequence of pls1_human PLSCR1, O15162 (O15162 whole entry): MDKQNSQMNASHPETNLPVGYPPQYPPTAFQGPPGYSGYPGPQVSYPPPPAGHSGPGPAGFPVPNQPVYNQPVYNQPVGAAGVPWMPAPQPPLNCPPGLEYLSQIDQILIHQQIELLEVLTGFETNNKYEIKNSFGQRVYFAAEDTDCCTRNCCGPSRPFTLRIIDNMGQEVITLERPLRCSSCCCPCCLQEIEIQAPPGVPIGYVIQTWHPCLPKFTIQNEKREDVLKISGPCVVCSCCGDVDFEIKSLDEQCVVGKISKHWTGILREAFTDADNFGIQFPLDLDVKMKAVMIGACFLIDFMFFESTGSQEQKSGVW

| effect of a mutation on the interaction | Variant |
| --- | --- |
| with no effect | A107S |
| with no effect | I155V |

Variants of: B1
Details: with mtus2_human MTUS2, Q5JR59
Sequence of mtus2_human MTUS2, Q5JR59 (Q5JR59 whole entry): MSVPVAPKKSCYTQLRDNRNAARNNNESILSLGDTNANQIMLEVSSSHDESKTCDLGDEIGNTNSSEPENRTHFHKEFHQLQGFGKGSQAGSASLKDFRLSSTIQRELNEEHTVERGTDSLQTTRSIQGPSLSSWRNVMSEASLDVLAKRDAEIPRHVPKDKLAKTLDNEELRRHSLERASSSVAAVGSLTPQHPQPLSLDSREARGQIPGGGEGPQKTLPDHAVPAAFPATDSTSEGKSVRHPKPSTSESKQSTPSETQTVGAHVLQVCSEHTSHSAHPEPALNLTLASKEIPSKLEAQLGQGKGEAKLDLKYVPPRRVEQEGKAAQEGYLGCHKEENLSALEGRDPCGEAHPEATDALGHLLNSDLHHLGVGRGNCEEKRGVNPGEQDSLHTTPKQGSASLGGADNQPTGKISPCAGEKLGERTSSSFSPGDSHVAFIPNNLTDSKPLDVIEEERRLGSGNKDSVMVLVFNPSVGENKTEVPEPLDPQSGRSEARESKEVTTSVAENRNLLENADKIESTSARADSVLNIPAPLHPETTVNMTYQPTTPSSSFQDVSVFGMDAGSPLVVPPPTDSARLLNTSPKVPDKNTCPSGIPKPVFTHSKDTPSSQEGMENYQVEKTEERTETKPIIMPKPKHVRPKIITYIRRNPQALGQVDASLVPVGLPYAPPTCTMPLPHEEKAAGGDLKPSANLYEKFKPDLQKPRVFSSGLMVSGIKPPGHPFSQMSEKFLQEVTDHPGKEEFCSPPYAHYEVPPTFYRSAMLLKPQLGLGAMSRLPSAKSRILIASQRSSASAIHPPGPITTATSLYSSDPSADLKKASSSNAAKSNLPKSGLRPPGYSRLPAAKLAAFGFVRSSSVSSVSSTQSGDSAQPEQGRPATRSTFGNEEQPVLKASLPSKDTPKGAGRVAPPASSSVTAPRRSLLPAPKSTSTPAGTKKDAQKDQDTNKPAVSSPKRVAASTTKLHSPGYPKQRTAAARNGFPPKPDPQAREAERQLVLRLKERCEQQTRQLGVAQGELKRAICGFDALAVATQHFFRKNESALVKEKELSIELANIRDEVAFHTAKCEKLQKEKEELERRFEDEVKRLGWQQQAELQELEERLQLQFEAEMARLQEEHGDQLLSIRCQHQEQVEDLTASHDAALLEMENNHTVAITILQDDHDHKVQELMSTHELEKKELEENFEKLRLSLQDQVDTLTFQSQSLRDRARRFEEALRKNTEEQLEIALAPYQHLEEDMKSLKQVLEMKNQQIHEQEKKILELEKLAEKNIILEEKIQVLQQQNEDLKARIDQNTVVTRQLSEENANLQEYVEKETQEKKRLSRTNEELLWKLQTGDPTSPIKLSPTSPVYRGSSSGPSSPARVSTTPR

| effect of a mutation on the interaction | Variant |
| --- | --- |
| with no effect | A107S |
| with no effect | I155V |

Variants of: B1
Details: with nt2na_human NOTCH2NLA

| effect of a mutation on the interaction | Variant |
| --- | --- |
| with no effect | A107S |
| with no effect | I155V |

Variants of: B2
Details: with blk_human BLK

| effect of a mutation on the interaction | Variant |
| --- | --- |
| with no effect | S265F |
| with no effect | A140D |

Variants of: B2
Details: with nck2_human NCK2, O43639
Sequence of nck2_human NCK2, O43639 (O43639 whole entry): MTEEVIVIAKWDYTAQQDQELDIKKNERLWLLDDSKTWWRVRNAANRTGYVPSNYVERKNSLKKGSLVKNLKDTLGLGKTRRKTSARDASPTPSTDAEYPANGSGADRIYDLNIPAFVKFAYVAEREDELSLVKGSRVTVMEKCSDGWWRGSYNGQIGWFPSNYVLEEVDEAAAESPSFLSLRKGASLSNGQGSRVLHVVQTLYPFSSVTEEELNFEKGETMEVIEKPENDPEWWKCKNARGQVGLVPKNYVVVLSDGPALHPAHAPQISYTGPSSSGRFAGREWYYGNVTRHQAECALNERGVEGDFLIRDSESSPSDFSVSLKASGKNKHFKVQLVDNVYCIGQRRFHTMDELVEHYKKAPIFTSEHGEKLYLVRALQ

| effect of a mutation on the interaction | Variant |
| --- | --- |
| with no effect | S265F |
| with no effect | A140D |

Variants of: B2
Details: with abi2_human ABI2, Q9NYB9
Sequence of abi2_human ABI2, Q9NYB9 (Q9NYB9 whole entry): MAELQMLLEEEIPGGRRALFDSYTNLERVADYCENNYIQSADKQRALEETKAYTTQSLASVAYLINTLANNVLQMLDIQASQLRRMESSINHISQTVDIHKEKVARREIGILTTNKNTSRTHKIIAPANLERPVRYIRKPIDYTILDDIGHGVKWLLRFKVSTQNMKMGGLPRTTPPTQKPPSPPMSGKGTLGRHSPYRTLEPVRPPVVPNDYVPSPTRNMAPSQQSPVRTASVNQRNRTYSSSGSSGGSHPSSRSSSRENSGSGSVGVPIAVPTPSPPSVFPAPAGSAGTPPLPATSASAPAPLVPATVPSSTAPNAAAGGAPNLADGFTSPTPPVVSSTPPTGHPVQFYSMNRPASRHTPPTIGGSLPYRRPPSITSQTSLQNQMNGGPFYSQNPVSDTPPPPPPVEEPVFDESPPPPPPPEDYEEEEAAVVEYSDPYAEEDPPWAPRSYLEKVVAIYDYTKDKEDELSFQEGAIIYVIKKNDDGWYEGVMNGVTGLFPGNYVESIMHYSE

| effect of a mutation on the interaction | Variant |
| --- | --- |
| with no effect | S265F |
| with no effect | A140D |

Variants of: B2
Details: with fyn_human FYN

| effect of a mutation on the interaction | Variant |
| --- | --- |
| with no effect | S265F |
| with no effect | A140D |

Variants of: B3
Details: with tri54_human TRIM54, Q9BYV2

| effect of a mutation on the interaction | Variant |
| --- | --- |
| with no effect | K247E |
| with no effect | V109D |
| with no effect | I170V |
| with no effect | V570M |
| disrupting interaction strength | T101A |
| with no effect | R672H |
| with no effect | A652T |

Variants of: B4
Details: with st2b1_human SULT2B1, O00204

| effect of a mutation on the interaction | Variant |
| --- | --- |
| with no effect | V223M |

Variants of: B5
Details: with nr1d2_human NR1D2, Q14995

| effect of a mutation on the interaction | Variant |
| --- | --- |
| with no effect | A115T |
| with no effect | R74Q |

Variants of: B6
Details: with creb3_human CREB3, O43889

| effect of a mutation on the interaction | Variant |
| --- | --- |
| with no effect | K205N |
